In US20170355771A1 (Biogen, published 2017):

Legend:
[1] = molecular target: T1, GPIIb/IIIa (SEQ ID NOs: 23 and 24) (human, UniProt P08514 32-994; P05106 27-716); test: Bio-Layer Interferometry (OctetRed), monovalent format, yeast-purified Fab; apparent monovalent affinity
T1 construct: also called GPIIb/IIIa complex
Protocol: (§1) BLI was performed on the OctetRed94 instrument, manufactured by ForteBio, according to standard procedures.

[2] = molecular target: T2, biotinylated human GPIIb/IIIa ectodomain protein (human, UniProt P08514 32-993; P05106 27-718, biotinylated (site not stated)); test: SPR, biotinylated GPIIb/IIIa ectodomain on streptavidin chip, Fab as analyte, 1:1 model
T2 construct: extracellular domain; also called purified GPIIb/IIIa

[3] = molecular target: T1, GPIIb/IIIa (SEQ ID NOs: 23 and 24); test: Bio-Layer Interferometry (OctetRed), monovalent format, yeast-purified Fab; apparent dissociation rate Kdis
Protocol: as §1

[4] = molecular target: T2, biotinylated human GPIIb/IIIa …; test: SPR, biotinylated GPIIb/IIIa ectodomain on streptavidin chip, fusion protein as analyte, 1:1 model
Description: (§2) The GPIIb/IIIa ectodomain protein was immobilized on an SPR chip coated with streptavidin (GE Healthcare).

[5] = molecular target: T2, biotinylated human GPIIb/IIIa …; test: surface plasmon resonance, biotinylated GPIIb/IIIa ectodomain on a streptavidin chip, analyte at 6.2 to 500 nM, 1:1 binding model
Description: as §2

T2 sequence (P08514 32-993, chain 1 of 2): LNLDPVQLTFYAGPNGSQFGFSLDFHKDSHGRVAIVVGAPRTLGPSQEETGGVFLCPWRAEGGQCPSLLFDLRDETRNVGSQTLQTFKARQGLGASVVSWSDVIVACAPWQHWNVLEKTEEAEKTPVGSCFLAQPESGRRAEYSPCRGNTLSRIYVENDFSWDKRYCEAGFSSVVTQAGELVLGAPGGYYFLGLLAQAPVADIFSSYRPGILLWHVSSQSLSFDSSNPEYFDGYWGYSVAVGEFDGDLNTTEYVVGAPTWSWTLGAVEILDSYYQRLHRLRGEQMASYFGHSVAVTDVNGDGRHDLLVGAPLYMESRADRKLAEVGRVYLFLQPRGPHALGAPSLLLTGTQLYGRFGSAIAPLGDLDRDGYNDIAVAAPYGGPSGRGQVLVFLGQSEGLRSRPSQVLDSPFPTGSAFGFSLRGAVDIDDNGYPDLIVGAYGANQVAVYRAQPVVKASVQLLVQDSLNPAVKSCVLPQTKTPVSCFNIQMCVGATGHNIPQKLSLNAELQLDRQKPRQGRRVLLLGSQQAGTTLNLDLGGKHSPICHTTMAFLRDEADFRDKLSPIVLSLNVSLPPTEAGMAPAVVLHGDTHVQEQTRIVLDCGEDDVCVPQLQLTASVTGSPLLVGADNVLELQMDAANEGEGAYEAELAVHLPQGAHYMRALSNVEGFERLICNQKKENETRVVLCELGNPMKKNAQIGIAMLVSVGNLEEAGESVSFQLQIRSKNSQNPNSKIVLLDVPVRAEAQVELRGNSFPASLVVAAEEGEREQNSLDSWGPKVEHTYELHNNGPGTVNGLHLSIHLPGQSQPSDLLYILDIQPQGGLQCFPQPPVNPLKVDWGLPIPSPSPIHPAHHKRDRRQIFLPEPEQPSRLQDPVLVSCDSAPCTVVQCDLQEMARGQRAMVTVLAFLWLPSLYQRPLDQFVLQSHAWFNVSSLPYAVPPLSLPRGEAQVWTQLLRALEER
T2 sequence (P05106 27-718, chain 2 of 2): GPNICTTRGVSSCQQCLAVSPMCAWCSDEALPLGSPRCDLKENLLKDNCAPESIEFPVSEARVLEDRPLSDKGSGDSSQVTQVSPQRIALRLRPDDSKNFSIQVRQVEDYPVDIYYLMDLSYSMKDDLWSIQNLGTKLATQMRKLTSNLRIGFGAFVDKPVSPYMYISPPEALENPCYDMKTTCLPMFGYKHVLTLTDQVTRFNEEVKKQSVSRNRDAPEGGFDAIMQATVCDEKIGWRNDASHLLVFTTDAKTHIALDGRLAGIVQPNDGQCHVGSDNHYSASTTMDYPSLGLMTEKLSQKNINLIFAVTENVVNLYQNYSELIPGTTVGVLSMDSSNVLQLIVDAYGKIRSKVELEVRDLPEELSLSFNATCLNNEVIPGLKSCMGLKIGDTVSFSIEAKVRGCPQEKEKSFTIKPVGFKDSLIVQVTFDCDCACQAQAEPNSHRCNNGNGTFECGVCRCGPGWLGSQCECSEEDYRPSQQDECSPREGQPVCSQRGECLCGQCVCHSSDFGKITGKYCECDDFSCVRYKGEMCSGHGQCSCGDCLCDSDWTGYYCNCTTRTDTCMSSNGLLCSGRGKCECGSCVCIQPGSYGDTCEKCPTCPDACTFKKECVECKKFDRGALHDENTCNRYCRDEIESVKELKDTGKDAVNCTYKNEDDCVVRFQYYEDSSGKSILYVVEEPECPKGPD
T1 sequence (P08514 32-994 limits assumed, chain 1 of 2): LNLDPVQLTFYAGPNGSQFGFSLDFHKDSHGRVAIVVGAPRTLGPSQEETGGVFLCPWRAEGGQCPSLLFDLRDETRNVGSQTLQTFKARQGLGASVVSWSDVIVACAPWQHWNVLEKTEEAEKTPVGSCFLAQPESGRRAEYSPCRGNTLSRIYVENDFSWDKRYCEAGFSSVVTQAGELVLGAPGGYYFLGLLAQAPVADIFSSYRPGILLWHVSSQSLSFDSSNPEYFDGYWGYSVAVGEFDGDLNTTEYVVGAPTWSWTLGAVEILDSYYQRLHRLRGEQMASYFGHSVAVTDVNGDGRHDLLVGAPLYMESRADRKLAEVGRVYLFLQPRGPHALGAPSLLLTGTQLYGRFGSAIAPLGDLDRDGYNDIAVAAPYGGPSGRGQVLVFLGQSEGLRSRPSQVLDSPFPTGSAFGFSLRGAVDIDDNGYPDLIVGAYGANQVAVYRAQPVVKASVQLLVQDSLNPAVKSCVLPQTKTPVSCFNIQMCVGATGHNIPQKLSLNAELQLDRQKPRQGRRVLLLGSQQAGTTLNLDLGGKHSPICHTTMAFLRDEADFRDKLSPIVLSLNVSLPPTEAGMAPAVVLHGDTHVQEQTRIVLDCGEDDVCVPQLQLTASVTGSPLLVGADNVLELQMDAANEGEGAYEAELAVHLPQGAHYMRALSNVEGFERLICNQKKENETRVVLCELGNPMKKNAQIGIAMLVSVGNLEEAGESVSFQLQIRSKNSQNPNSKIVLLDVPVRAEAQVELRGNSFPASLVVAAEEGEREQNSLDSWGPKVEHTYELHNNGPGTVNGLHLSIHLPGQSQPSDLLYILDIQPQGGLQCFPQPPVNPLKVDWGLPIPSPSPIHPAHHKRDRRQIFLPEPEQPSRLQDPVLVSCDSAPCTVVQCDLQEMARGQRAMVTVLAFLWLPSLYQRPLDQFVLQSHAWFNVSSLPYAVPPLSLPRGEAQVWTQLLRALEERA
T1 sequence (P05106 27-716 limits assumed, chain 2 of 2): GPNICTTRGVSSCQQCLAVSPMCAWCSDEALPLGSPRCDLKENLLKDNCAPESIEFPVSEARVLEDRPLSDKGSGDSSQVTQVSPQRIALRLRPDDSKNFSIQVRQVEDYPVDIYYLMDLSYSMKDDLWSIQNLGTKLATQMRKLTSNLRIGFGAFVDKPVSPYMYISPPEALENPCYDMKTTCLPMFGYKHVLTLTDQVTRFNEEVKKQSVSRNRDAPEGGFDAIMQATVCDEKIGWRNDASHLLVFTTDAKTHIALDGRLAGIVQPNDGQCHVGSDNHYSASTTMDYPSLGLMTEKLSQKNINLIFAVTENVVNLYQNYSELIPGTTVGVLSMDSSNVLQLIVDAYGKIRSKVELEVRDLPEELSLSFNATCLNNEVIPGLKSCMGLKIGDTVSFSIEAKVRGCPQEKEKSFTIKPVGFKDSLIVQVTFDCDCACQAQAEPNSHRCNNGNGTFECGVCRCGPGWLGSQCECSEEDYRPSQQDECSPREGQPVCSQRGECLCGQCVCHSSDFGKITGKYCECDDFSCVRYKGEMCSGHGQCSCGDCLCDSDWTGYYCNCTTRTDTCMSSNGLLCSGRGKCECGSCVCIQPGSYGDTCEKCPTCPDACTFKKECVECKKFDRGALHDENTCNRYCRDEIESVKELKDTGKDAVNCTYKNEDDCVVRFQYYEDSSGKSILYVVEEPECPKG

B1: humanized 34D10 Fab L0/H2 (Fab, V domains shown)
VH: EVQLVESGGGLVKPGGSLRLSCAASGFTFSAYAMSWVRQAPGKGLVWVASISSGGTTYYPDSVKRQFTISRDNAKNTLYLQMNSLRAEDTAVYYCTRGGDYGYALDYWGQGTLVTVSS
VL: EIVMTQSPATLSVSPGERATLSCRASSSVNYMYWYQQKPGQAPRLLIYYTSNLAPGIPARFSGSGSGTEFTLTISSLQSEDFAVYYCQQFSSSPWTFGQGTKVEIK
notes: Fab; also called VL0/VH2
With B1 the Kd [1] was 155 nM, the Kd [2] was 2.8 nM and the koff [3] was 0.0563 s⁻¹.

B2: affinity matured h34D10 Fab VH120/VL0 (Fab, V domains shown)
VH: EVQLVESGGGLVEPGGSLRLSCAASGFTFSAYAMSWVRQAPGKGLVWVASISSGGTTYYPDSVKRQFTISRDNAKNTLYLQMNSLRAEDTAVYYCTRGGDYGYALDYWGQGTLVTVSS
VL: EIVMTQSPATLSVSPGERATLSCRASSSVNYMYWYQQKPGQAPRLLIYYTSNLAPGIPARFSGSGSGTEFTLTISSLQSEDFAVYYCQQFSSSPWTFGQGTKVEIK
notes: Yeast-purified Fab
In the case of B2, the Kd [1] is reported as 240 nM and the koff [3] is reported as 0.0492 s⁻¹.

B3: affinity matured h34D10 Fab VH121/VL0 (Fab, V domains shown)
VH: EVQLVESGGGLVKPGGSLRLSCAASGFTFSAYAMSWVRQAPGEGLVWVASISSGGTTYYPDSVKRQFTISRDNAKNTLYLQMNSLRAEDTAVYYCTRGGDYGYALDYWGQGTLVTVSS
VL: EIVMTQSPATLSVSPGERATLSCRASSSVNYMYWYQQKPGQAPRLLIYYTSNLAPGIPARFSGSGSGTEFTLTISSLQSEDFAVYYCQQFSSSPWTFGQGTKVEIK
notes: Yeast-purified Fab
In the case of B3, the Kd [1] is reported as 230 nM and the koff [3] is reported as 0.0494 s⁻¹.

B4: humanized 34D10 Fab L0/H5 (Fab, V domains shown)
VH: EVKLVESGGGLVKPGGSLRLSCAASGFTFSAYAMSWVRQAPGKGLEWVASISSGGTTYYPDSVKRRFTISRDNARNTLYLQMNSLRAEDTAVYYCTRGGDYGYALDYWGQGTLVTVSS
VL: EIVMTQSPATLSVSPGERATLSCRASSSVNYMYWYQQKPGQAPRLLIYYTSNLAPGIPARFSGSGSGTEFTLTISSLQSEDFAVYYCQQFSSSPWTFGQGTKVEIK
notes: Fab; also called VL0/VH5
B4 gave a Kd [2] of 5.3 nM.

B5: FVII-250/Fab-062 (other)
chain: ANAFLEELRPGSLERECKEEQCSFEEAREIFKDAERTKLFWISYSDGDQCASSPCQNGGSCKDQLQSYICFCLPAFEGRNCETHKDDQLICVNENGGCEQYCSDHTGTKRSCRCHEGYSLLADGVSCTPTVEYPCGKIPILEKRNASKPQGRIVGGKVCPKGECPWQVLLLVNGAQLCGGTLINTIWVVSAAHCFDKIKNWRNLIAVLGEHDLSEHDGDEQSRRVAQVIIPSTYVPGTTNHDIALLRLHQPVVLTDHVVPLCLPERTFSERTLAFVRFSLVSGWGQLLDRGATALELMVLNVPRLMTQDCLQQSRKVGDSPNITEYMFCAGYSDGSKDSCKGDSGGPHATHYRGTWYLTGIVSWGQGCATVGHFGVYTRVSQYIEWLQKLMRSEPRPGVLLRAPFPGGGGSGGGGSGGGGSGGGGSGGGGSGGGGSEIVMTQSPATLSVSPGERATLSCRASSSVNYMYWYQQKPGQAPRLLIYYTSNLAPGIPARFSGSGSGTEFTLTISSLQSEDFAVYYCQQFSSSPWTFGQGTKVEIKRTVAAPSVFIFPPSDEQLKSGTASVVCLLNNFYPREAKVQWKVDNALQSGNSQESVTEQDSKDSTYSLSSTLTLSKADYEKHKVYACEVTHQGLSSPVTKSFNRGEC
heavy: EGTSESATPESGPGSEPATSGSETPGTSESATPESGPGSEPATSGSETPGTSESATPESGPGTSTEPSEGSAPGSPAGSPTSTEEGTSESATPESGPGSEPATSGSETPGTSESATPESGPGSPAGSPTSTEEGSPAGSPTSTEEGTSTEPSEGSAPGTSESATPESGPGTSESATPESGPGTSESATPESGPGSEPATSGSETPGSEPATSGSETPGSPAGSPTSTEEGTSTEPSEGSAPGTSTEPSEGSAPGSEPATSGSETPGTSESATPESGPGTSTEPSEGSAPEVQLVESGGGLVKPGGSLRLSCAASGFTFSAYAMSWVRQAPGKGLVWVASISSGGTTYYPDSVKRQFTISRDNAKNTLYLQMNSLRAEDTAVYYCTRGGDYGYALDYWGQGTLVTVSSASTKGPSVFPLAPSSKSTSGGTAALGCLVKDYFPEPVTVSWNSGALTSGVHTFPAVLQSSGLYSLSSVVTVPSSSLGTQTYICNVNHKPSNTKVDKKVEPKSC
notes: also called Fab-250/Fab-062 (as printed once)
Work on B5 yielded a Kd [4] of 730 nM, a koff [5] of 0.0174 s⁻¹ and a kon [5] of 23700 M⁻¹ s⁻¹.

B6: mouse Fab (34D10) (Fab, V domains shown)
VH: EVKLVESGGGLVKPGGSLKLSCAASGFTFSAYAMSWVRQTPEKRLEWVASISSGGTTYYPDSVKRRFTISRDNARNILYLQMSSLRSEDTAMYYCTRGGDYGYALDYWGQGTSVTVSS
VL: ENVLTQSPAIMSASLGEKVTMSCRASSSVNYMYWYQQKSDASPKLWIYYTSNLAPGVPARFSGSGSGNSYSLTISSMEGEDAATYYCQQFSSSPWTFGGGTKLEIK
notes: Fab; also called mouse 34D10 Fab
Binder B6 has a Kd [2] of 2.8 nM.

B7: humanized 34D10 Fab L1/H3 (Fab, V domains shown)
VH: EVQLVQSGGGLVKPGESLRLSCAASGFTFSAYAMSWVRQAPGKGLEWVASISSGGTTYYPDSVKRRFTISRDNAKNTLYLQMNSLRAEDTAVYYCTRGGDYGYALDYWGQGTLVTVSS
VL: EIVLTQSPATLSVSPGERATLSCRASSSVNYMYWYQQKPGQAPRLLIYYTSNLAPGVPARFSGSGSGTEFTLTISSLQSEDFAVYYCQQFSSSPWTFGQGTKVEIK
notes: Fab; only variable domains are tied by name; also called VL1/VH3
Work on B7 yielded a Kd [2] of 110 nM.
